This note sets out measurements from article PMC7083938, “NELL2-Robo3 complex structure reveals mechanisms of receptor activation for axon guidance” (Nature Communications, 2020).

The assay addresses T1, full-length mouse NELL2 (mouse, UniProt Q61220 25-819, biotin (NHS-Biotin) where captured on the SA chip for SPR).
T1 construct: NELL2, mouse; called full-length; the methods say that mature domains were cloned into pAcGP67A; Trimer by MALS; also called mNELL2; mNELL2 ectodomain; source: High Five cells (baculovirus), secreted, purified (Ni-NTA, SEC); not shown: His6, C-terminal, kept
T1 sequence (looked up): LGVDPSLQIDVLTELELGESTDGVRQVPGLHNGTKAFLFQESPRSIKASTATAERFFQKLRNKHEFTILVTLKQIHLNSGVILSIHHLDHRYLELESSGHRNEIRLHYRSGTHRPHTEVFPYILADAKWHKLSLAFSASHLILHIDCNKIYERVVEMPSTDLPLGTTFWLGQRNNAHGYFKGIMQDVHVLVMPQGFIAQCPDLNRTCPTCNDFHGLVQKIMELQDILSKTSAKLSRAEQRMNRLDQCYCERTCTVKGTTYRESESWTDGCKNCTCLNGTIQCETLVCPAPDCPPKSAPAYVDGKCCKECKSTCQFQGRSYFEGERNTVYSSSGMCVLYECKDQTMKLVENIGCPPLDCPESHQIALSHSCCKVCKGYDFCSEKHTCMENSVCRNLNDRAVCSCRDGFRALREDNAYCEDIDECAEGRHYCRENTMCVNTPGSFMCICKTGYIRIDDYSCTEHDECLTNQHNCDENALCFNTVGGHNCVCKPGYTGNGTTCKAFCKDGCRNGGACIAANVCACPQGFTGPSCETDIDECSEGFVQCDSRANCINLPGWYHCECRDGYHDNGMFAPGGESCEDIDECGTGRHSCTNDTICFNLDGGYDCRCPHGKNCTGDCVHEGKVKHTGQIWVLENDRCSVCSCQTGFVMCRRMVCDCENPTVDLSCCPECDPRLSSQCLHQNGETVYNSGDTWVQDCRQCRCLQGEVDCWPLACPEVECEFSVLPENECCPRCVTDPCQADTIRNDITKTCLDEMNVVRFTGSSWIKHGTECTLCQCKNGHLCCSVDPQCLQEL
As to the kind of experiment: SEC; complex of full-length mNELL2 and mRobo3 FN1 purified by SEC; peak fractions quantified in triplicate by western blot against the His6 tag with 1:1 molar standards. As to conditions: both partners purified.

B1: mouse Robo3 FN1 domain (domain or fragment, UniProt Q9Z2I4 558-652, looked up)
chain: PPSQPIVTEVTANSITLTWKPNPQSGATATSYVIEAFSQAAGNTWRTVADGVQLETYTISGLQPNTIYLFLVRAVGAWGLSEPSPVSEPVQTQDS
notes: Robo3, mouse, FN1 domain; also called mRobo3 FN1; source: High Five cells (baculovirus), secreted, purified (Ni-NTA, SEC); not shown: His6, C-terminal, kept
Take B1: the “stoichiometry N” value is 3 mRobo3 FN1 per mNELL2 trimer.
